First the molecules themselves.
B1: IgSF (IgI3) domain of β protein, recombinant, biotinylated [modified: biotin, C-terminal] [Streptococcus agalactiae (GBS)] / recombinant CEACAM1 N-terminal domain, unglycosylated, 6xHis tagged [human] (parent)
chain 1: MAQLTTESMPFNVAEGKEVLLLVHNLPQQLFGYSWYKGERVDGNRQIVGYAIGTQQATPGPANSGRETIYPNASLLIQNVTQNDTGFYTLQVIKSDLVNEEATGQFHVY
chain 2: ANENNQQKIELTVSPENITVYEGEDVKFTVTAKSDSKTTLDFSDLLTKYNPSVSDRISTNYKTNTDNHKIAEITIKNLKLNESQTVTLKAKDDSGNVVEKTFTITVQKKEEKQLPSTGGS

In this assay the parent is B1. Kind of assay: flow cytometry on coated dynabeads. As to conditions: with recombinant CEACAM1 N-terminal domain, parent: 390, read off a plot. Background: Flow cytometry measures light scatter and fluorescence of single cells or particles in a stream.
For the variant chain 2 ANENNQQKIELTVSPENITVYEGEDVKFTVTAKSDSKTTLDFSDLLTKYNPAVSDRISTNYKTNTDNHKIAEITIKNLKLNESQTVTLKAKDDSGNVVEKTFTITVQKKEEKQLPSTGGS [chain 2 S52A], the response (Geometric MFI) amounted to 320. Consider chain 2 ANENNQQKIELTVSPENITVYEGEDVKFTVTAKSDSKTTLDFSDALTKYNPSVSDRISTNYKTNTDNHKIAEITIKNLKLNESQTVTLKAKDDSGNVVEKTFTITVQKKEEKQLPSTGGS [chain 2 L45A], for which the response (Geometric MFI) was found to be 350.

(Values after article PMC8013792, “Bacterial protein domains with a novel Ig‐like fold target human CEACAM receptors” (The EMBO Journal, 2021).)
